The DeepSol protein solubility set

Experiment: soluble on expression in E. coli; label from the status in PepcDB or PDB records

Q: Which “soluble on expression in E. coli” value does the source give for “GPGSMVAKQSTAKGGSRYPPLTADQEKEVTELMELMRTKYDPLPQQLLALQRYNPQMEGTASEGAVAGTFFSPIRNYCYYFLISREWDRQKSFEMMQLSVSYREKNELDSRAELPSAICCRGWEQEKVRIALDKPARPTSQRLDRLSAGIEQYFTFGLHYWDKHGQPVVYLNLGSVDEPGLLKKLKQLANIGQTPNLVMWELVQHLIGVQEQLLFYQQMQYAAGTLKAEADDGLIRSATIVIDLNGLTYKMLWKPALDLFMNMLQTLFQYYPKCVHQILLVNSPPMVMFAYKIVRGALPHGVQRKVHIVNVADTPATMQSFIDAQYVPDYLGGLCHCEGGCVRGYDPHQRGTMKDSGTAKSDTRNVQSGDQDDEAGVVTEEITLKAGQELKRAFSLKRAESVVWEFVSANGRDVAFSTYFVPKKAAPSIDTSKLPTSMLESYVVSKASPSEGSDKYTASDDGIFVIVWDNKKSWFTAKYLQLNVFKQAATLTDGA” here?
A: not soluble

Q: For “GPGSMVEACFLCLDSTEYMRNGDQYPTRMMAEQDAACLLANAKLQANAENTLGFLTTGGNACTVYETLTNNVDAIMTSIGSIPVNGKRCNFSSGLQIASLALSHRTNSRAEKRIVAFVGSPIGETAAELEALAKKLRKDDVAVDVVAFGVESNVELLQAFVKKVSKKENSRFLAVAARENLTDKLMSNAILLGEDLPEGAEGGGASMSGFGVDPNMDPELAMALRLSMEDEMQRQAAAAAAAASSAAPESAPASGSAATPAAPAAPAAAPVVDEDELSYENMSEEEMMRRAIALSLQDTAQGASDTASSPSVPQPATTSEACRNEEENEDDFAKGVEAALEEEEDEENRS”, which “soluble on expression in E. coli” value is on record?
A: soluble

Q: With “GPGSMVQRTLFDFVSKKGDNATTEEVGSKTESGQPSASSRKRTAEDQVANGGASNLTRARVAKENNGALASLIVDPGWEAFLKPLTTSSNFERIEKFLEGELNAGKTILPPREMIFSAFNSTPLDMLKVVLLGQDPYHNVGQAHGLCFSVLPGVPPPPSLINMYKELATDIPGFVAPQHGYLQHWAEQGVLMLNATLTVEIHKANSHATCGWQTFTDDVIRLLSEKHKNPLVFLLWGGFAKRKISLIDRKRHVVIECAHPSPLSAAKWWGSRPFSKCNTALVEKKLSPIDWKLPVCLSKGK” as the sequence, how does the “soluble on expression in E. coli” value read?
A: not soluble

Q: Which “soluble on expression in E. coli” value does the source give for “GPGSSISNLSMQTHAARMRTFMYWPSSVPVQPEQLASAGFYYVGRNDDVKCFCCDGGLRCWESGDDPWVEHAKWFPRCEFLIRMKGQEFVDEIQGRY” here?
A: soluble

Q: With “GPHMADLLLNSTQFVQAFTYLIQNDKEFANKLHKAYLNGCSNLLLD” as the sequence, how does the “soluble on expression in E. coli” value read?
A: soluble

Q: For “GPLGSHMASEFINQGDVTEGNNNQEEVYCFCRNVSYGPMVACDNPACPFEWFHYGCVGLKQAPKGKWYCSKDCKEIANQRSKSKRQKRRK”, which “soluble on expression in E. coli” value is on record?
A: soluble

Q: With “GPLGSMIVFVRFNSSHGFPVEVDSDTSIFQLKEVVAKRQGVPADQLRVIFAGKELRNDWTVQNCDLDQQSIVHIVQRPWRK” as the sequence, how does the “soluble on expression in E. coli” value read?
A: soluble

Q: Which “soluble on expression in E. coli” value does the source give for “GPLGSPEFPGAFRTQKPSLNTVNVVGSSMGSGGVFTIDGKIKCVTAAHVLTGNSARVSGVGFNQMLDFDVKGDFAIADCPNWQGVAPKAQFCEDGWTGRAYWLTSSGVEPGVIGNGFAFCFTACGDAGSPVITEAGELVGVHTGSNKQGGGIVTRPSGQFCNVKPIKLSELSEFFAGPKVPLGDVKIGSHIIKDTCEVPSDLCALLAAKPELE” here?
A: soluble

Q: With “GPLGSPEFPGEFYIPPEPSNDAIEIFSSGIASGIHFSKYNNIPVKVTGSDVPQPIQHFTSADLRDIIIDNVNKSGYKIPTPIQKCSIPVISSGRDLMACAQTGSGKTAAFLLPILSKLLEDPHELELGRPQVVIVSPTRELAIQIFNEARKFAFESYLKIGIVYGGTSFRHQNECITRGCHVVIATPGRLLDFVDRTFITFEDTRFVVLDEADRMLDMGFSEDMRRIMTHVTMRPEHQTLMFSATFPEEIQRMAGEFLKNYVFVAIGIVGGACSDVKQTIYEVNKYAKRSKLIEILSEQADGTIVFVETKRGADFLASFLSEKEFPTTSIHGDRLQSQREQALRDFKNGSMKVLIATSVASRGLDIKNIKHVINYDMPSKIDDYVHRIGRTGRVGNNGRATSFFDPEKDRAIAADLVKILEGSGQTVPDFLRTC” as the sequence, how does the “soluble on expression in E. coli” value read?
A: soluble

Q: For “GPLGSPEFPGRRKPEAQPFAHLTINAASIPSGSHKVTLSSWYHDRGWAKISNMTLSNGKLRVNQDGFYYLYANICFRHHETSGSVPTDYLQLMVYVVKTSIKIPSSHNLMKGGSTKNWSGNSEFHFYSINVGGFFKLRAGEEISIQVSNPSLLDPDQDATYFGAFKVQDID”, which “soluble on expression in E. coli” value is on record?
A: soluble

Q: For “GPLGSPPSKEILTLKQVQEFLKDGDDVVILGVFQGVGDPGYLQYQDAANTLREDYKFHHTFSTEIAKFLKVSLGKLVLMQPEKFQSKYEPRMHVMDVQGSTEASAIKDYVVKHALPLVGHRKTSNDAKRYSKRPLVVVYYSVDFSFDYRTATQFWRNKVLEVAKDFPEYTFAIADEEDYATEVKDLGLSESGGDVNAAILDESGKKFAMEPEEFDSDALREFVMAFKKGKLKPVIKSQPVPKNNKGAAAS”, which “soluble on expression in E. coli” value is on record?
A: soluble

Q: For “GPLGSTSLVQGLTPPPDFNQCLKNSPDEKFFSDFSNNMGSRKNPDPLATEEVPNQEQIPEEGFIHTQYGQKPEQPSGASAGHRFPQGYHSDKRRLSKASSKARSDDLSV”, which “soluble on expression in E. coli” value is on record?
A: soluble

Q: With “GPLGSVGSWECPVCCVSNKAEDSRCVSCTSEKPGLVSASSSNSVPVSLPSGGCLGLDKFKKPEGSWDCEVCLVQNKADSTKCIACESAKPGT” as the sequence, how does the “soluble on expression in E. coli” value read?
A: soluble

Q: Which “soluble on expression in E. coli” value does the source give for “GQKESQTGKGMKIVTSFYPIYAMVKEVSGDLNDVRMIQSSSGIHSFEPSANDIAAIYDADVFVYHSHTLESWAGSLDPNLKKSKVKVLEASEGMTLERVPGLEDVEAGDGVDEKTLYDPHTWLDPEKAGEEAQIIADKLSEVDSEHKETYQKNAQAFIKKAQELTKKFQPKFEKATQKTFVTQHTAFSYLAKRFGLNQLGIAGISPEQEPSPRQLTEIQEFVKTYKVKTIFTESNASSKVAETLVKSTGVGLKTLNPLESDPQNDKTYLENLEENMSILAEELK” here?
A: soluble

Q: With “GREQMASFESAYVALSRMKQHVQVYTDNREGWIKAIKNSPEKATAHDILEPRNDRAVKTADLLFGRARPLDETAAGRAALQQSGLAQGSSPGKFISPGKKYPQPHVALPAFDKNGKAAGIWLSPLTDRDGRLEAIGGEGRIMGNEDARFVALQNSRNGESLLAGNMGEGVRMARDNPDTGVVVRLAGDDRPWNPGAMTGGRVWAEPAPVAPVPQAGADIILPPEVLAQRAAEEQQRREMEKKAEQTAREMAGEARKAG” as the sequence, how does the “soluble on expression in E. coli” value read?
A: not soluble

Q: With “GRFSDELVEACAEMVRQRWNPHPEPTWVCCVPSLRHLDLVPDFARRLAAKLGLPFIDAIEKVVDNPPQKMQQNRFHQCQNLDGAFVITPPLMPGPALLVDDIVDSAWTLTVLTALLRQAGCPTVYPLALASTSVK” as the sequence, how does the “soluble on expression in E. coli” value read?
A: not soluble

Q: For “GRMENEESDVKPPDWPNPMNATSQFPQPQHFDSFGLRLPRDITELPEWSEGYPFYMAMGFPGYDLSADDIAGKFQFSRGMRRSYDAGFKLMVVEYAESTNNCQAAKQFGVLEKNVRDWRKVKPQLQNAHAMRRAFRGPKNGRFALVDQRVAEYVRYMQAKGDPITREAMQLKALEIAQEMNIPEKGFKASLGWCRRMMRRYDLSLRHKVPVPQHLPEDLTEKLVTYQRSVLALRRAHDYEVAQMGNADETPICLEVPSRVTVDNQGEKPVLVKTPGREKLKITAMLGVLADGRKLPPYIILRGTYIPPGKFPSGMEIRCHRYGWMTEDLMQDWLEVVWRRRTGAVPKQRGMLILNGFRGHATDSVKNSMESMNTDMVIIPGGLTSQLQVLDVVVYKPLNDSVRAQYSNWLLAGNLALSPTGNAKKPPLGLFLEWVMVAWNSISSESIVQGFKKCHISSNLEEEDDVLWEIESELPGGGEPPKDCDTESMAESN”, which “soluble on expression in E. coli” value is on record?
A: soluble

Q: With “GRSLGKLGMRYGKKRVHIAKRNLELAFPEKTPEEVQHIVEENFKNTGMALIETGITWFWPTWRFKTLIVEKDIHALKEKGAEGK” as the sequence, how does the “soluble on expression in E. coli” value read?
A: not soluble

Q: Which “soluble on expression in E. coli” value does the source give for “GSDDNKTTGATYDPNQPVTVESFMPVEGKLREKVIVKGSNFGTDKSKVKVYFVDEAAERLSTVIGIDNNTLYCLAPRQLPGGNRIKVIVDGKEVTTDGTFKYEQAQNVSTISGSASKDGNDDGDLASAKFKYMWGIAAVGNNTVLAYQRDDPRVRLISVDDNKVTTVHPGFKGGKPAVTKDKQRVYSIGWEGTHTVYVYMKASGWAPTRIGQLGSTFSGKIGAVALDETEEWLYFVDSNKNFGRFNVKTQEVTLIKQLELSGSLGTNPGPYLIYYFVDSNFYMSDQNLSSVYKITPDGECEWFCGSATQKTVQDGLREEALFAQPNGMTVDEDGNFYIVDGFKGYCLRKLDILDGYVSTVAGQVDVASQIDGTPLEATFNYPYDICYDGEGGYWIAEAWGKAIRKYAVE” here?
A: soluble

Q: For “GSETCIYSNWSPWSACSSSTCEKGKRMRQRMLKAQLDLSVPCPDTQDFQPCMGPGCSDEDG”, which “soluble on expression in E. coli” value is on record?
A: soluble

Q: With “GSFLLPKLTSKKEVDQAIKSTAEKVLVLRFGRDEDPVCLQLDDILSKTSSDLSKMAAIYLVDVDQTAVYTQYFDISYIPSTVFFFNGQHMKVDYGSPDHTKFVGSFKTKQDFIDLIEVIYRGAMRGKLIVQSPIDPKNIPKYDLLYQDI” as the sequence, how does the “soluble on expression in E. coli” value read?
A: soluble

Q: For “GSGKNLIMIQVEALQGFVVNKSINGKEITPNLNKWINKSLYFDNYFYQVAQGNTSDAEFMSLNSLYPAQSGAAYYTYAGNTFNSIPKDLGDKGYYTAALHGYNEGFWNRNVMYKSEKFDDFYGQTSYKNDEVVGMGLSDESFLNQSLAKMKTFKQPYFSFLITLSSHYPFNDTAGYEKYTMNKLDVGEYKDTLLGNYFEGIHYTDEQLGKFLDKLDKEGLTKNSIIVLYGDHFAIPKENINQLYSFEGIKDPTDLTWYEYQKVPMFIHFPDDEHKGVNHTYSGQMDIYPTIANLYNISNNYMFGEDILNVKDGDSTNVTFRNGSFTDGK”, which “soluble on expression in E. coli” value is on record?
A: not soluble

Q: For “GSHMAPADYFRVLVQQFEVQLQQYRQQIEELENHLATQANNSHITPQDLSMAMQKIYQTFVALAAQLQSIHENVKVLKEQYLSYRKMFLGDAG”, which “soluble on expression in E. coli” value is on record?
A: soluble

Q: Which “soluble on expression in E. coli” value does the source give for “GSHMGPVEILPFLYLGSAYHASKCEFLANLHITALLNVSRRTSEACMTHLHYKWIPVEDSHTADISSHFQEAIDFIDCVREKGGKVLVHSEAGISRSPTICMAYLMKTKQFRLKEAFDYIKQRRSMVSPNFGFMGQLLQYESEILPSTPNPQPPSCQGEAAGSSLIGHLQTLSPDMQGAYCTFPASVLAPVPTHSTVSELSRSPVATATSC” here?
A: soluble

Q: With “GSHMIVQIGRREEFDKKLLGEMHKLRAQVFKERKGWDVSVIDEMEIDGYDALSPYYMLIQEDGQVFGCWRILDTTGPYMLKNTFPELLHGKEAPCSPHIWELSRFAINSGQKGSLGFSDCTLEAMRALARYSLQNDIQTLVTVTTVGVEKMMIRAGLDVSRFGPHLKIGIERAVALRIELNAKTQIALYGGVLVEQRLAVS” as the sequence, how does the “soluble on expression in E. coli” value read?
A: soluble

Q: With “GSHMNPLASLTTDKNDLYINWLKSLSFFQTNSSCAEALVKVIPHYHNKLIDFSQVLQLVFSASEKFPIQENQPLPEQLMFLSNLEKQTPFAKAVGSSIYKLVTGKNLSLDFASQILKEASILEH” as the sequence, how does the “soluble on expression in E. coli” value read?
A: soluble

Q: Which “soluble on expression in E. coli” value does the source give for “GSHMQAEILLTLKLQQKLFADPRRISLLKHIALSGSISQGAKDAGISYKSAWDAINEMNQLSEHILVERATGGKGGGGAVLTRYGQRLIQLYDLLAQIQQKAFDVLSDDDALPLNSLLAAISRFSLQTSARNQWFGTITARDHDDVQQHVDVLLADGKTRLKVAITAQSGARLGLDEGKEVLILLKAPWVGITQDEAVAQNADNQLPGIISHIERGAEQCEVLMALPDGQTLCATVPVNEATSLQQGQNVTAYFNADSVIIATLC” here?
A: soluble
